# From patent publication US20170240596A1 (published 2017)
# No end group written: not given here.
# Columns and labels:
# C4-2 [1] = assay: flow
# C4-2 cells [2] = assay: flow
# C4-2 cells [3] = assay: flow cytometry; C4-2 cells; apparent Kd
# C4-2 [4] = assay: flow cytometry; C4-2 cells; apparent Kd
Binder,Kd (C4-2 [4]) [µM],further results
"GTIQPYPFSWGY (also: FAM (fluorescein amidite) label, position not given here) [GTI]",,Kd (C4-2 [1]): 8.91 µM; Kd (C4-2 cells [2]): 8.91 µM
"SGYQTFYWPGPI (also: FAM label, position not given here) [Scrambled GTI]",,Kd (C4-2 cells [3]): > 100 µM
"HSDNHYRPADKL (also: FAM label, position not given here) [HSD]",30.8,

# Now from value to binder, other results behind:
Kd (C4-2 [4]) [µM],Binder,further results
44.1,"TGHLYPTRMEIQ (also: FAM label, position not given here) [TGH]",
9.79,"YVNSHSILGYTG (also: FAM label, position not given here) [YVN]",
